What was measured:
[1] = tested on: MDSCs; conditions: without any effect on B and T cells, NK cells, or macrophages; cited from earlier work
[2] = molecular target: T1, IL-8 (Homo sapiens, UniProt P10145); conditions: another study; cited from earlier work
T1 sequence (P10145 21-99): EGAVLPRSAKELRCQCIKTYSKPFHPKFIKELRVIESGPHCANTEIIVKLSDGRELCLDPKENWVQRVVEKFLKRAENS

[3] = tested on: CD8+ T, NK and Treg cells; experiment: Immune cell populations by flow cytometry in wildtype B6 mice bearing Cxcl14-expressing MOE/E6E7 cells; assay type: in vivo, mouse
Procedure: MOE/E6E7 cells with Cxcl14 (clones #8 and #16) or vector were injected into the right flank of B6 mice (n=3, each group). Tumor (A) and lymph nodes (B) tissues were harvested at 21 days post injection. Percentage of immune cell populations was determined by flow cytometry.
MOE/E6E7 cell clones expressing Cxcl14 (8 and 16) and one vector containing MOE/E6E7 cell clone were injected into the rear right flank of B6 mice (n=3, each group). Spleen was harvested at 21 days post injection and analyzed by flow cytometry. Relative abundance of Treg cells was determined using anti-CD4 and CD25 antibodies.
(§1) CXCL14 is an evolutionary-conserved chemokine showing 98% homology between human CXCL14 and murine Cxcl14. To determine whether CXCL14 affects tumor growth in vivo, the inventors studied mouse oropharyngeal epithelial cells (MOE/E6E7) that form tumors in immunocompetent syngeneic C57BL/6 (B6) mice. […] To test tumor suppressor functions of CXCL14, the inventors established MOE/E6E7 cell lines that re-expressed their physiological levels of Cxcl14. […] To characterize immune cell infiltration regulated by Cxcl14 expression, the inventors analyzed various immune cells in tumor tissue, tumor draining lymph node (TDLN), and in spleen harvested from the wildtype B6 mice at 21 days after injection with a control or with Cxcl14 expressing MOE/E6E7 cells. […]

[4] = tested on: splenocytes isolated from B6 mice; experiment: In vitro migration assay using the Transwell system; assay type: cell-based, mouse
Procedure: MOE cells with Cxcl14 or vector were cultured on the bottom chamber of a Transwell. Splenocytes were added to the upper chamber. After 12 hr incubation, migrated splenocytes to the bottom chamber were collected and analyzed by flow cytometry.
as §1
(§2) To determine whether CXCL14 affects tumor growth in vivo, the inventors utilized an HNSCC mouse model with MOE/E6E7 cells that form tumors in immunocompetent syngeneic mice. […] Next, the inventors determined whether CXCL14 directly induces chemotaxis of CD8^+ T and NK cells using the Transwell system and splenocytes isolated from B6 mice.

[5] = tested on: MOE/E6E7 cells; experiment: Tumor growth and survival after injection of MOE/E6E7 cells expressing Cxcl14 into Rag1-/- B6 mice; assay type: in vivo, mouse
Procedure: (§3) Two MOE/E6E7 cell clones expressing Cxcl14 (clones 8 and 16) and one vector containing MOE/E6E7 cell clone were injected into the rear right flank of wildtype (A & B) and Rag1−/− (C & D) B6 mice (n=10, each group of wildtype; n=7, each group of Rag1−/). (A & C) Tumor growth was determined every week by the formula: volume=(width) 2×length. Survival rates were analyzed using a Kaplan-Meier estimator. (B & D) Time-to-event was determined for each group (vector only, Cxcl14-clone 8, Cxcl14-clone 16) with the event being tumor burden larger than 2,500 mm3. Deaths not associated with tumor were censored. P-values were determined by the Log-rank test.
(§4) CXCL14 is an evolutionary-conserved chemokine showing 98% homology between human CXCL14 and murine Cxcl14. […] To characterize immune cell infiltration regulated by Cxcl14 expression, the inventors analyzed various immune cells in tumor tissue, tumor draining lymph node (TDLN), and in spleen harvested from the wildtype B6 mice at 21 days after injection with a control or with Cxcl14 expressing MOE/E6E7 cells. […]
as §2

[6] = tested on: myeloid-derived suppressor cells (MDSC); experiment: MDSC abundance by flow cytometry in tumor and spleen of Rag1-/- mice; assay type: in vivo, mouse; conditions: mice injected with MOE/E6E7 cells re-expressing Cxcl14 vs empty vector, 23 days post injection
Procedure: MOE/E6E7 cell clones expressing Cxcl14 (8 and 16) and one vector containing MOE/E6E7 cell clone were injected into Rag1−/− mice (n=4, each group). Tumor (A) and spleen (B) were harvested at 23 days post injection, homogenized, and analyzed by flow cytometry. Relative abundance of MDSC cells (A & B) was determined using anti-MHCII, anti-Gr1, and anti-CD11b+ antibodies.
The chemokine receptors CXCR1 and CXCR2 are of primary importance for the migration of granulocytes to sites of inflammation. A recent study has shown that CXCR2 is also required for MDSC infiltration into tumors for cancer development. Additionally, blocking CXCR2-mediated MDSC infiltration enhances efficacy of anti-PD1 therapy. […] Thus, it is likely that CXCR2 ligands produced by HNSCC cells recruit MDSCs into the TME, and that CXCL14 expression interferes with IL-8 mediated MDSC infiltration. Thus, it will be verified that CXCL14 expression in HPV+ HNSCC cells reverses the immunosuppressive microenvironment by inhibiting Cxcr2-mediated MDSC expansion and infiltration. These experiments will determine novel mechanisms by which downregulation of CXCL14 triggers immune suppression in the TME.

[7] = tested on: MOE/E6E7 cells; experiment: Tumor growth and survival after injection of MOE/E6E7 cells expressing Cxcl14 into wildtype B6 mice; assay type: in vivo, mouse; conditions: wildtype B6 mice injected with MOE/E6E7 cells expressing Cxcl14
Procedure: as §3, §4, §2

Molecule | MDSC elimination in tumor-bearing mice [1] | Binding to IL-8 [2] | Treg cells in spleens ([3]; B6 mice with tumors re-expressing Cxcl14, 21 days post injection) | Percentages of CD8+ T and NK cells in tumor tissues and TDLNs ([3]; wildtype B6 mice, 21 days after injection, vs vector containing cells) | Migration of CD8+ T and NK cells to Cxcl14 expressing HNSCC cells ([4]; 12 hr incubation, compared to vector containing HNSCC cells) | Migration of macrophages and CD4+ T cells ([4]; CXCL14 expressing MOE/E6E7 cells, splenocytes from B6 mice) | Time to succumb to tumor burden ([5]; Rag1-/- B6 mice injected with MOE/E6E7 cells re-expressing Cxcl14) [days post injection] | Tumor growth ([5]; Rag1-/- mice injected with Cxcl14 expressing MOE/E6E7 cells) | MDSCs in tumors and spleens [6] | Tumor clearance [7]
Nc1ccn([C@@H]2O[C@H](CO)[C@@H](O)C2(F)F)c(=O)n1 [gemcitabine] | selectively eliminates MDSCs through apoptosis |  |  |  |  |  |  |  |  | 
Cxcl14: chemokine, approximately 9.5 kD secreted protein; tested by re-expression in MOE/E6E7 tumor cells (clones 8 and 16) (protein, UniProt Q9WUQ5 23-99, looked up) C-X-C motif chemokine 14: SKCKCSRKGPKIRYSDVKKLEMKPKYPHCEEKMVIVTTKSMSRYRGQEHCLHPKLQSTKRFIKWYNAWNEKRRVYEE |  | directly binds to IL-8 | significantly decreased | highly increased | 3-4 fold | little effect | ≤ 32 | delayed tumor growth | significantly decreased | a majority of B6 mice injected with MOE/E6E7 cells expressing Cxcl14 cleared tumors
